Source: PMC3483176, “Structural Insight into the Clostridium difficile Ethanolamine Utilisation Microcompartment” (PLoS ONE, 2012)

B1: CD1908, C-terminal His6 tagged (CD1908-His) (natural protein, Clostridium difficile 630, UniProt Q187M0 1-116, looked up)
chain: MTEESKQRVIQEYVPGKQVTLAHIIANPNEDIYKKLGLVLDKKDAIGILTITPSEASIIAADVATKASNVSLGFIDRFSGSVVISGDVSSVESALNDVLEVLGNMLNFSSTKITRT
notes: CD1908, EutS homologue, BMC shell protein of the eut operon of Clostridium difficile 630; full length open reading frame amplified from genomic DNA (genome positions 2209853-2210203); Cloned between NcoI and XhoI of pET28b; also called EutS; C. difficile EutS homologue; source: E. coli B834 (DE3), purified (HisTrap, Superdex S200 size exclusion); not shown: His6, C-terminal, kept
B2: CD1918, C-terminal His6 tagged (CD1918-His) (natural protein)
chain: MASANALGMIETKGLVGAIEAADAMVKAANVQLVGKEQVGGGLVTVMVRGDVGAVKAATDAGAAAAERVGELISVHVIPRPHFEVDAILPKVSAE
notes: CD1918, EutM homologue, BMC shell protein of the eut operon of Clostridium difficile 630; full length open reading frame amplified from genomic DNA (genome positions 2219567-2219854); Cloned between NcoI and XhoI of pET28b; the XhoI site probably adds Leu-Glu before the His6 tag (surmised); also called EutM; C. difficile EutM homologue; source: E. coli B834 (DE3), purified (HisTrap, Superdex S200 …)

What was measured:
[1] = target: the molecule itself; assay: crystal structure; CD1908-His at 10 mg/ml in Milli-Q H2O, sitting drop, 24% (w/v) PEG 1500, 20% (v/v) glycerol; space group H 3; two molecules in the asymmetric unit, hexamer by the crystallographic 3-fold axis; oligomerisation states calculated with PISA
[2] = target: the molecule itself; assay: crystal structure; CD1918-His at 10 mg/ml in Milli-Q H2O, sitting drop, 200 mM Li2SO4, 100 mM phosphate/citrate buffer pH 4.2, 20% (w/v) PEG 1000; space group I 1 2 1; three chains in the asymmetric unit, hexamer by a crystallographic 2-fold axis; oligomerisation states calculated with PISA

Row | Protein | stoichiometry N [1] | stoichiometry N [2]
1 | B1 | 6 | –
2 | B2 | – | 6
